Measurements reported in US20160319012A1 (Genentech, published 2016).

Target: T1, hamster phospholipase B-like 2 (PLBL2) (hamster, UniProt G3I6T1 38-585, Used as two conjugates: one with biotin (Biotin-PLBL2) and one with digoxigenin (DIG-PLBL2). Conjugation sites are not stated. Natural mannose-6-phosphate glycans are not carried by the letters.)
T1 construct: Purified hamster PLBL2; also called PLB2; PLBD2
T1 sequence: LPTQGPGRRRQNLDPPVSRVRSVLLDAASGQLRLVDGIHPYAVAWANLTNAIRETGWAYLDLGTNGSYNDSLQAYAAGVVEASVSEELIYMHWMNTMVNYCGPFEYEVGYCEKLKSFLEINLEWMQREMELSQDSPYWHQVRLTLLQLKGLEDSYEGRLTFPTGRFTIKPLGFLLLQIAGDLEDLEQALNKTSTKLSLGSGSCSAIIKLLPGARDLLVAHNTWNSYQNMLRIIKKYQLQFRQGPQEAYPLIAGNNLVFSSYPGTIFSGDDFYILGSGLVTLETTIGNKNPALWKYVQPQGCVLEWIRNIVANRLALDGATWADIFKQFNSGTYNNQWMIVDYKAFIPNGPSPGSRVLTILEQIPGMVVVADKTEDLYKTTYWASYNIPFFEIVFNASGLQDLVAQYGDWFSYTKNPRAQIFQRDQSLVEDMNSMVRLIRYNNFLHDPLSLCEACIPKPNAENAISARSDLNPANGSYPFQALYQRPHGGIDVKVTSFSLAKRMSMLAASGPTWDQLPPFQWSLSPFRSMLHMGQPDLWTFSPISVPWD
Assay: bridging ELISA with Biotin-PLBL2 and DIG-PLBL2, drug tolerance experiment in serum
Procedure: The antibody bridging ELISA assay that was developed and validated to detect antibodies to hamster PLBL2 in human serum used two conjugated reagents to capture all isotypes of antibodies directed against hamster PLBL2: purified hamster PLBL2 conjugated to biotin (Biotin-PLBL2) and purified hamster PLBL2 conjugated to digoxigenin (DIG-PLBL2). Production and purification of hamster PLBL2 was carried out using standard methods known to one skilled in the art is also described in U.S. Provisional Application Nos. 61/877,503 and 61/991,228 and conjugation to biotin or DIG were carried out using standard methods known to one skilled in the art. In this semi-homogenous antibody bridging ELISA assay, 75 μL/well of conjugated solution in assay diluent (PBS/0.5% BSA/0.05% Polysorbate 20/0.05% ProClin 300, pH 7.4±0.1) containing 3 μg/mL of each Biotin-PLBL2 and DIG-PLBL2 were co-incubated overnight (16-24 hours) at ambient temperature with 75 μL/well of 1:20 diluted serum samples and controls in assay diluent in polypropylene micronic tubes (National Scientific Supply Co.; Claremont, C A). […] The plates were read at 450 nm for detection absorbance and 630 nm for reference absorbance.

B1: lebrikizumab (antibody, human IgG4 S228P, kappa, V domains shown)
VH: VTLRESGPALVKPTQTLTLTCTVSGFSLSAYSVNWIRQPPGKALEWLAMIWGDGKIVYNSALKSRLTISKDTSKNQVVLTMTNMDPVDTATYYCAGDGYYPYAMDNWGQGSLVTVSS
VL: DIVMTQSPDSLSVSLGERATINCRASKSVDSYGNSFMHWYQQKPGQPPKLLIYLASNLESGVPDRFSGSGSGTDFTLTISSLQAEDVAVYYCQQNNEDPRTFGGGTKVEIKR
notes: Humanized IgG4; also called anti-IL13 MAb; anti-IL13 monoclonal antibody
B1: no binding (tested: 50 µg/mL).
